The labels stand for the following.
B1: 75110_08A13A (antibody, V domains shown)
VH: EVQLVESGGGLVQPGGSLRLSCAASGFIFSSYWMSWVRQAPGKGLEWVANIKQDGSEKYYMDSVKGRFTISRDNAKNSLYLQMNSLRAEDTAVYYCARDNSYYYYGMDVWGQGTTVTVSS
VL: AIQMTQSPSSLSASVGDRVTITCRASQGIRDDLGWYQQKPGKAPKLLIFAASSLQSGVPSSFSGSGSGTDFTLTISSLQPEDFATYYCLHHYNYPYTFGQGTKLEIK
notes: Tested as non-clonal hybridoma supernatant (AlivaMab Mouse Kappa), detected with anti-mouse Fc and anti-human kappa
B2: 75110_02E22A (antibody, V domains shown)
VH: QVQLQESGPGLVKPSETLSLTCTVSGGSISSFYWSWIRQPAGKGLEWIGRIYTSGSTNYNPSLKSRVTMSVDTSKNQFSLKLSSVTAADTAVYYCARELEKRNYYGMDVWGQGTTVTVSS
VL: DIQMTQSPSSLSASVGDRVTITCQASHDISNYLNWYQQKPGKAPKLLIFDASTLETGVPSRFSGSGSGTYFTFTIRSLQPEDIATYYCQQYDSLPLTFGGGTKVEIK
notes: as for B1
B3: 75110_04D20A (antibody, V domains shown)
VH: B2 VH with G26N, S31D, F32Y, V67I, K81E, K101R, R102Y, N103Y, Y104F, M107V
VL: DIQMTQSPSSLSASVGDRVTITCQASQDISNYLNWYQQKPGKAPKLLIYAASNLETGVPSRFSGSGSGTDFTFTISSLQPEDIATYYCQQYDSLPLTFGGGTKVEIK
notes: as for B1
B4: 75110_04G02A (antibody, V domains shown)
VH: not shown
VL: DIVMTQSPDSLAVSLGERATINCKSSQSVLYSSNNKNYLAWYQQKPGQPPKLLFYWASARESGVPDRFSGSGSGTDFTLTISSLQAEDVALYYCQQYFGSFPTFGQGTKLEIK
notes: as for B1
B5: 75110_03I23A (antibody, V domains shown)
VH: QVQLQESGPGLVKPSETLSLTCTASGGSITSYYWNWIRQPAGKGLEWIGRIYTSGSTNYNPSLKSRVTMSVDTSKNQFSLKLSSVTAADTAVYYCARDPGYSDAFNIWGQGTMVTVSS
VL: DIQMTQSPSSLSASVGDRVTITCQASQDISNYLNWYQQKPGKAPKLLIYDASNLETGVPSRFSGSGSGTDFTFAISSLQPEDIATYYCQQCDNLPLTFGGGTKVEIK
notes: as for B1
B6: 75110_07J24A (antibody, V domains shown)
VH: QAQLQESGPGLVKPSETLSLTCTVSGGSISSYYYNWIRQPAGKGLEWIGRIYTSGRTDYNPSLKSRVTMSADTSKNQFSLKLSSVTAADTAVYYCARDEGPTDAFDIWGQGTMVTVSS
VL: DIVMTQTPLSLPVTPGEPASISCRSSQSLLDSDDGNTYLDWYLQKPGQSPHLLIYTLSYRASGVPDRFSGSGSGSDFTLKISRVEAEDVGVYYCMQRIEFPFTFGPGTKVDIK
notes: as for B1
B7: 75110_05A11A (antibody, V domains shown)
VH: EVQLVESGGGLVKPGGSLTLSCAASGFTFSNTWMSWVRQAPGKGLEWVGRIKSKIDGGTTDYAAPVKGRFTISRDDSKNTLYLQMNSLKTEDTAVYYCTTSGTYSSGWGLFDYWGQGTLVTVSS
VL: DIQMTQSPSSLSASVGDRVTITCQASQDISNYLNWYQQKPGKAPKLLIYDTSNLEAGVPSRFSGSGSGTHFTLTISSLQPEDIATYYCQQYDNLPFTFGGGTRVEIK
notes: as for B1
B8: 75110_02K11A (antibody, V domains shown)
VH: QVQLQESGPGLVKPSQTLSLTCTVSGGSISSGFYYWTWIRQHPGKGLEWIGYISYSGNTYYNPSFKSRLTISVDTSKSQFSLKLSSVTAADTAVYYCARDRPSNFDAFDIWGQGTMVTVSS
VL: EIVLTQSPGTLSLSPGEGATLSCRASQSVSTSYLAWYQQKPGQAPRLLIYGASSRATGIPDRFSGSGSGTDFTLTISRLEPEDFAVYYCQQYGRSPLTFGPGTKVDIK
notes: as for B1
B9: 75110_01C18A (antibody, V domains shown)
VH: EVQLVESGGGLIQPGGSLRLSCAASGFTVSSNYMNWVRQAPGKGLEWVSVIYAGDNTYSADSVKGRFTISRDNSNNTLCLQMNSLRAEDTAVYYCAREGGTTGAFDIWGQGTMVTVSS
VL: DIQMTQSPSSVSASVGDRVTITCRASQGINSWLAWYQQKPGKAPKLLIYAASSLQSGVPSRFSGSGSGTDFTLTISSLQPEDFATYYCQQGNSFPYTFGQGTKLEIK
notes: as for B1
B10: 75110_05E13A (antibody, V domains shown)
VH: EVQLVESGGDLVKPGGSLRLSCAASGFSFSNAWMSWVRQAPGKGLEWVGRVESKTDGGTTDYAAPVKDRFTISRDDSKYTLYLQMNSLKTEDSAVYYCTIGGGFGLELYGFFDYWGQGTLVTVSS
VL: DIQMTQSPSTLSASVGDRVTITCRASQSISSWLAWYQQKPGKAPMLLIYKASSLESGVPSRFSGSGSGTEFTLTISSLQPDDFATYYCLQYNSYYTFGQGTKLEIK
notes: as for B1

Substitutions are numbered along the chain they refer to.

For the first experiment, the target named is T1, human CD4 on cells (SKW3 cells; human PBMCs) (human, UniProt P01730 26-458).
T1 construct: whole, on cells; SKW3 CD4 knockout cells served as the negative cell line for the WT vs KO ratios; also called hCD4; SKW3 WT
Description: FACS confirmation, supernatant on human PBMCs, anti-mFc 647, CD4+ gate.
In the case of B1, the “CD4+ gate RL1 Binding” value was determined as 258000.
Same read-out and setting: next, B2: 276000.
Same read-out and setting: next, B3: 174000; B4: 178000.
In the case of B5, the “CD4+ gate RL1 Binding” value is 241000.
The same measure, in the same setting: next, B6: 234000.
The same measure, in the same setting: next, B7: 247000.
For the molecule B8, the “CD4+ gate RL1 Binding” value stood at 296000.
On the same count and under the same terms, the figure for B9 is 308000; for B10 it is 231000.

In the next experiment the target is T1, human CD4 on cells (SKW3 cells; human …). Put plainly: FACS confirmation, supernatant on SKW3 WT cells, anti-mFc 647 (Bkrd gMFI = 3300).
For B1, the gMFI is 9180 gMFI.
On the same count and under the same terms, the figure for B2 is 17300 gMFI.
Same read-out and setting: the figure for B3 is 21900 gMFI; for B4 it is 12000 gMFI; for B5 it is 13800 gMFI.
In turn, B6 registered a gMFI of 30900 gMFI.
B7: the gMFI came to 24400 gMFI.
Consider B8, for which the gMFI is 24800 gMFI.
As for B9, the gMFI turned out to be 34900 gMFI.
Still for that read-out and setting: next, B10: 45600 gMFI.

The next experiment shares this target. Description: FACS confirmation, supernatant on human PBMCs, anti-mFc 647, percent of viable cells.
Take B1: the “CD4+ Percent Bound of Viable” value amounted to 29%.
On the same count and under the same terms, the figure for B2 is 31%; for B3 it is 28%; for B4 it is 27%.
The same measure, in the same setting: next, B5: 28%; B6: 33%.
As for B7, the “CD4+ Percent Bound of Viable” value worked out at 26%.
Still for that read-out and setting: the figure for B8 is 29%; for B9 it is 31%; for B10 it is 26%.

The next experiment shares this target. Description: FACS confirmation, supernatant on SKW3 WT cells, anti-hu Kappa FITC (Bkrd gMFI = 2500).
Regarding B1, the gMFI is 3140 gMFI.
On the same count and under the same terms, the figure for B2 is 4280 gMFI.
The same measure, in the same setting: next, B3: 6790 gMFI; B4: 4060 gMFI.
Molecule B5 registered a gMFI of 5140 gMFI.
As to B6, the gMFI was found to be 5830 gMFI.
Same read-out and setting: next, B7: 6620 gMFI.
On the same count and under the same terms, next, B8: 6660 gMFI.
Molecule B9 returned a gMFI of 6530 gMFI.
Still for that read-out and setting: next, B10: 8050 gMFI.

For the next experiment the target is unchanged. Description: FACS primary screen, non-clonal hybridoma supernatant; SKW3 WT vs SKW3 CD4 KO cells, anti-mFc-647.
As for B1, the “SKW3 WT vs KO anti-mFc-647” value stood at 2.7 fold.
With B2, the “SKW3 WT vs KO anti-mFc-647” value came out at 4.7 fold.
On the same count and under the same terms, the figure for B3 is 4.5 fold.
On to B4, for which the “SKW3 WT vs KO anti-mFc-647” value is 6.6 fold.
Still for that read-out and setting: the figure for B5 is 4.1 fold.
On to B6, for which the “SKW3 WT vs KO anti-mFc-647” value amounted to 6.2 fold.
On to B7, for which the “SKW3 WT vs KO anti-mFc-647” value was 3.4 fold.
As for B8, the “SKW3 WT vs KO anti-mFc-647” value amounted to 10.3 fold.
Consider B9, for which the “SKW3 WT vs KO anti-mFc-647” value turned out to be 14.7 fold.
The same measure, in the same setting: next, B10: 5.8 fold.

The next experiment has the same target. Put plainly: SKW3 FACS binning; competitor OKT4-A488 added after supernatant (background 2163, max binding 8200).
With B1, the “OKT4 A488 signal in binning” value was determined as 7980.
For B2, the “OKT4 A488 signal in binning” value is 8480.
On the same count and under the same terms, the figure for B3 is 7370.
Regarding B4, the “OKT4 A488 signal in binning” value came to 9330.
Still for that read-out and setting: next, B5: 9920.
Same read-out and setting: next, B6: 7730; B7: 8160; B8: 8730.
Regarding B9, the “OKT4 A488 signal in binning” value is 9490.
As for B10, the “OKT4 A488 signal in binning” value was 9330.

A further experiment has the same target. Description: FACS primary screen, non-clonal hybridoma supernatant; SKW3 WT vs SKW3 CD4 KO cells, anti-hKappa-FITC.
For the molecule B1, the “SKW3 WT vs KO anti-hKappa-FITC” value stood at 1 fold.
For the molecule B2, the “SKW3 WT vs KO anti-hKappa-FITC” value was found to be 1.6 fold.
Still for that read-out and setting: next, B3: 2.3 fold; B4: 1.5 fold.
Same read-out and setting: the figure for B5 is 1.9 fold; for B6 it is 1.8 fold.
The same measure, in the same setting: next, B7: 1.8 fold; B8: 3.3 fold; B9: 3.7 fold.
In the case of B10, the “SKW3 WT vs KO anti-hKappa-FITC” value is 1.9 fold.

The target is the same in a further experiment. Description: SKW3 FACS binning; competitor RPA-T4-PE-Dazzle 594 added after supernatant (background 783, max binding 15000).
Take B1: the “RPA-T4-PE-Dazzle 594 signal in binning” value was 13300.
Turning to B2, the “RPA-T4-PE-Dazzle 594 signal in binning” value was 15300.
On the same count and under the same terms, next, B3: 17100.
Same read-out and setting: the figure for B4 is 12100; for B5 it is 14000; for B6 it is 8460.
Same read-out and setting: next, B7: 17200; B8: 15800; B9: 16500.
Consider B10, for which the “RPA-T4-PE-Dazzle 594 signal in binning” value is 16500.

The target in a further experiment is T2, huCD4-HIS (human, UniProt P01730 26-390, limits assumed).
T2 construct: Named only in the head of the ELISA binning column; not shown: HIS tag
Put plainly: ELISA binning; competitor Ibalizumab, 100 ng/mL huCD4-HIS, anti-HIS HRP detection (background 45, max binding 3000000). (In general: An ELISA detects its analyte on a solid surface through an enzyme-linked reagent.)
Take B1: the “Ibalizumab ELISA binning signal” value came to 230000.
Take B2: the “Ibalizumab ELISA binning signal” value amounted to 1.86e+06.
On the same count and under the same terms, next, B3: 2.11e+06; B4: 45; B5: 1.26e+06.
On to B6, for which the “Ibalizumab ELISA binning signal” value was 215000.
With B7, the “Ibalizumab ELISA binning signal” value was 45.
Still for that read-out and setting: the figure for B8 is 1.99e+06.
On the same count and under the same terms, next, B9: 1.78e+06; B10: 45.

A further experiment concerns the target T1, human CD4 on cells (SKW3 cells; human …). Description: SKW3 FACS binning; competitor OKT4a added after supernatant, anti-hu A647 secondary (background 5000, max binding 35000).
Turning to B1, the “OKT4a anti-hu A647 signal in binning” value came out at 42000.
The same measure, in the same setting: next, B2: 41900.
As for B3, the “OKT4a anti-hu A647 signal in binning” value worked out at 29200.
Turning to B4, the “OKT4a anti-hu A647 signal in binning” value was 22500.
On the same count and under the same terms, next, B5: 15900; B6: 33800; B7: 35000.
On the same count and under the same terms, next, B8: 32200.
Same read-out and setting: next, B9: 36200; B10: 36400.

The values above are taken from patent publication US20220112288A1 (published 2022).
